32 molecules from patent US20130123350, “NUCLEIC ACID MOLECULE CAPABLE OF BINDING TO c-MET AND USE THEREOF” (KANAGAWA PREFECTURAL HOSPITAL ORGANIZATION, published 2013) can be followed below.

B1: g24 (ssRNA)
RNA: GGGACGCUCACGUACGCUAAGAGUUGUCGCACAGCGACUCGAAAAUAAUCUGUCCGACACUCAGUGCCUGGACGUGCAGU
B2: g26 (ssRNA)
RNA: GGGACGCUCACGUACGCUAAGCUCCACCAGGUGUAGCUAGCCUGUAGACAUCAGUAGCAUCAGUGCCUGGACGUGCAGU
B3: g16 (ssRNA)
RNA: GGGACGCUCACGUACGCUAACCGCUACCGGGUGCAACGGGUAGACUGUAACCAGGUGAUAUCAGUGCCUGGACGUGCAGU
B4: g20 (ssRNA)
RNA: GGGACGCUCACGUACGCUAAACGUUGUGGCGAACUUCGGCCCGAACGGGAGUAACUGCAUCAGUGCCUGGACGUGCAGU
B5: g35 (ssRNA)
RNA: GGGACGCUCACGUACGCUAAGAUUUGUGUGAUACCCGACACUCUAACGGGGUAGCAGGGCUCAGUGCCUGGACGUGCAGU
B6: g12 (ssRNA)
RNA: GGGACGCUCACGUACGCUAACGCGGCCAUCCGGCGUUUGGAACGGGAUGUACACCUGACAUCAGUGCCUGGACGUGCAGU
B7: g19 (ssRNA)
RNA: GGGACGCUCACGUACGCUAAGUAGCCGUGAUUGGGUUGGCUGCCCACAAUUAUCCAGGACUCAGUGCCUGGACGUGCAGU
B8: g38 (ssRNA)
RNA: GGGACGCUCACGUACGCUAACCAGGAGCAUUAGACCGGGGAAAGAAGGAGUACCGUCUGGUCAGUGCCUGGACGUGCAGU
B9: g32 (ssRNA)
RNA: GGGACGCUCACGUACGCUAAACAAGACCGGGAUGGGGGUUGGUCACACACAAAGACUGAAUCAGUGCCUGGACGUGCAGU
B10: g33 (ssRNA)
RNA: GGGACGCUCACGUACGCUAAACUUUUGGCGAUCUCCGGCCGGAUACGGGAGAACGAGGUAUCAGUGCCUGGACGUGCAGU
B11: g15 (ssRNA)
RNA: GGGACGCUCACGUACGCUAAGACGCGGGCCACCGGCUAGCGACGGGUGGUAAAGGGCUUGUCAGUGCCUGGACGUGCAGU
B12: g17 (ssRNA)
RNA: GGGACGCUCACGUACGCUAAAGUGAUGGCCGGCUGGAGAAACGGGCCACUCGAUCCAGGUCAGUGCCUGGACGUGCAGU
B13: g31 (ssRNA)
RNA: GGGACGCUCACGUACGCUAAAGAGUCUAUGCCGUGAGUGAGGGUGGCGCCUCGACUGCCAUCAGUGCCUGGACGUGCAGU
B14: g23 (ssRNA)
RNA: GGGACGCUCACGUACGCUAAAUGGGAGUGCGCCUCGGCUCUAACGGAGGUAUGCACGUCAUCAGUGCCUGGACGUGCAGU
B15: g27 (ssRNA)
RNA: GGGACGCUCACGUACGCUAACCUAUGCAGACCGACAUCCGGGUAUACGGGAUGAUGCGACUCAGUGCCUGGACGUGCAGU
B16: g22 (ssRNA)
RNA: GGGACGCUCACGUACGCUAAGCGUGUUUCUUCAUUUCGACGCUGGCCAACGGAAAUGCAAUCAGUGCCUGGACGUGCAGU
B17: g11 (ssRNA)
RNA: GGGACGCUCACGUACGCUAAGUUUAGGUGGCAUCGACCUUCAUGAAACGGGUGCACAGGCUCAGUGCCUGGACGUGCAGU
B18: g25 (ssRNA)
RNA: GGGACGCUCACGUACGCUAAUAGCAACAGUUCCCAGAGGUGAUCAGGCAGCCUUAAGACAUCAGUGCCUGGACGUGCAGU
B19: g13 (ssRNA)
RNA: GGGACGCUCACGUACGCUAAUCACUCGGACAGCCGGAGCGAAACGGGCUGUGUAAGACUGUCAGUGCCUGGACGUGCAGU
B20: g21 (ssRNA)
RNA: GGGACGCUCACGUACGCUAACCUUGGUGUCAUCCGACCAAAUUAGAACGGGAUGAGGAAGUCAGUGCCUGGACGUGCAGU
B21: g14 (ssRNA)
RNA: GGGACGCUCACGUACGCUAAUCAUCGGGACAUCGGAUGGAACGGGUGUCAAGAAGCGUGUUCAGUGCCUGGACGUGCAGU
B22: g34 (ssRNA)
RNA: GGGACGCUCACGUACGCUAAUUUGGUGAAUUCCGACCAUUUUGCAAACGGGAUACGGGACUCAGUGCCUGGACGUGCAGU
B23: g10 (ssRNA)
RNA: GGGACGCUCACGUACGCUAAACACAGCUCUGAUGGUCGUGAUUAGGUUGACCACCUACCUUCAGUGCCUGGACGUGCAGU
B24: g30 (ssRNA)
RNA: GGGACGCUCACGUACGCUAAAAAUUGCCGGGAUCUGGUGUGGCGACCAUGCGGCGUGCAUUCAGUGCCUGGACGUGCAGU
B25: g28 (ssRNA)
RNA: GGGACGCUCACGUACGCUAACCUGGGGGUUCCGCAGGAAUCGGGAACUAGAUUGGUGGUCUCAGUGCCUGGACGUGCAGU
B26: g36 (ssRNA)
RNA: GGGACGCUCACGUACGCUAACUUGAUUGGUCGCAACCGGACAAGGACGGGUUGAUGCAGUUCAGUGCCUGGACGUGCAGU
B27: g29 (ssRNA)
RNA: GGGACGCUCACGUACGCUAAACGAGCCGUGAUUGGGUUGGCAACCCUGCUUAUGUGAGGAUCAGUGCCUGGACGUGCAGU
B28: g37 (ssRNA)
RNA: GGGACGCUCACGUACGCUAAGGUUUGCUCCGACCGACUAAAGGGAGCCUCUGUCACGAGUUCAGUGCCUGGACGUGCAGU
B29: g18 (ssRNA)
RNA: GGGACGCUCACGUACGCUAAGGCACCCUAUAGGAUUCAGCCCCUAACCCGGUGUUGUGAAUCAGUGCCUGGACGUGCAGU
B30: g35 2'-F (ssRNA)
RNA: GGGACGCUCACGUACGCUAAGAUUUGUGUGAUACCCGACACUCUAACGGGGUAGCAGGGCUCAGUGCCUGGACGUGCAGU
modifications: 2'-F on all C and U
B31: g36 2'-F (ssRNA)
RNA: GGGACGCUCACGUACGCUAACUUGAUUGGUCGCAACCGGACAAGGACGGGUUGAUGCAGUUCAGUGCCUGGACGUGCAGU
modifications: 2'-F on all C and U
B32: g37 2'-F (ssRNA)
RNA: GGGACGCUCACGUACGCUAAGGUUUGCUCCGACCGACUAAAGGGAGCCUCUGUCACGAGUUCAGUGCCUGGACGUGCAGU
modifications: 2'-F on all C and U

T1 sequence (P08581 25-307, stated change not applied, chain 1 of 2): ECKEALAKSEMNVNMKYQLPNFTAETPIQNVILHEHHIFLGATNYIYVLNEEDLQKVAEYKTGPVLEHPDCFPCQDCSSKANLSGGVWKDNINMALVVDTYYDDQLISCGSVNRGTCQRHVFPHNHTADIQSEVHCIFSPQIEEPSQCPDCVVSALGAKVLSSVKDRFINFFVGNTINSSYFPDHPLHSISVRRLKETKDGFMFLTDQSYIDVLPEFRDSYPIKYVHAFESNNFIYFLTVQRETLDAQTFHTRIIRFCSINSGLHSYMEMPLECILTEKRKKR
T1 sequence (P08581 308-932, stated change not applied, chain 2 of 2): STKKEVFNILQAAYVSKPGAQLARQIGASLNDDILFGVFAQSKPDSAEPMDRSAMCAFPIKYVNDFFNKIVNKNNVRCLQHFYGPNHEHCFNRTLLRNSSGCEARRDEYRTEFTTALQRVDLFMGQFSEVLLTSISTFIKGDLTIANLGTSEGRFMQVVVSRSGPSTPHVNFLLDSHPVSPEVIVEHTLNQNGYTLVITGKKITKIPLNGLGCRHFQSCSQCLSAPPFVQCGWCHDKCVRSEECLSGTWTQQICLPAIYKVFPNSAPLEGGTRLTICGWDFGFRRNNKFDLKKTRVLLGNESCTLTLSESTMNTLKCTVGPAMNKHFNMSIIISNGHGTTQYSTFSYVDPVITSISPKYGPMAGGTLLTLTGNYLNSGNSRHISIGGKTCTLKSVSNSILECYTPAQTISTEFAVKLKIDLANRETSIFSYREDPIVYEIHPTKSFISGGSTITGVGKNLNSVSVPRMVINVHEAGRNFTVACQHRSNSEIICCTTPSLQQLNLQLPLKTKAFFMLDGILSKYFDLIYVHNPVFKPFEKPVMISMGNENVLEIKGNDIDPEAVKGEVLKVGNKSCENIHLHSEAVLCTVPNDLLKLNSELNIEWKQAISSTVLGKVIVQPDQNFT

In the first data set the target is T1, rec-cMet (Recombinant Human HGF R/c-MET/Fc Chimera) (Homo sapiens, UniProt P08581;P08581 SEQ:1-283,SEQ:1-625). In words: SPR; rec-cMet 100 nM. Particulars: tags: C-terminal HIEGRMD linker, human IgG Fc (100-330), 6xHis; R&D Systems; chain copies: 2 (inferred, Fc chimera). As for the experimental part:
(§1) Using these truncated RNA aptamers, the binding ability thereof to the rec-cMet was examined. The binding ability was analyzed using BIACORE (registered trademark) X (GE Healthcare) in accordance with its instructions for use, with the concentration of the rec-cMet being set to 175 nmol/L. Also, the binding ability of each of the RNA aptamers g1 and g1-trA was examined in the same manner. As a comparative example, the 40N was used, and the binding ability thereof was examined in the same manner.
The binding ability of each of the RNA aptamers to the rec-cMet was examined in the same manner as in Example 5, except that the above RNA aptamers were used. The concentration of the rec-cMet was set to 100 nmol/L. With the time point at which the introduction of the rec-cMet to the chip was started being 0 seconds, introduction of a buffer was started 60 seconds later.
In general terms: In SPR one partner is held on a chip, and binding of the other changes the refractive index at the surface.
As for B1, the binding result is recorded as “binds”.

For the molecule B2, the binding result is given as “binds”.

In the case of B3, the binding result is “binds”.

On to B4, for which the binding result is on record as “binds”.

Consider B5, for which the binding result is on record as “binds”.

Regarding B6, the binding result is given as “binds”.

Consider B7, for which the binding result is recorded as “binds”.

As to B8, the binding result was “binds”.

B9: the binding result is “binds”.

For B10, the binding result was “binds”.

B11: the binding result is “binds”.

For B12, the binding result is recorded as “binds”.

With B13, the binding result is “binds”.

On to B14, for which the binding result is on record as “binds”.

B15: the binding result is recorded as “binds”.

For B16, the binding result was “binds”.

Regarding B17, the binding result is reported as “binds”.

As for B18, the binding result is given as “binds”.

Regarding B19, the binding result was “binds”.

In the case of B20, the binding result is recorded as “binds”.

For the molecule B21, the binding result is reported as “binds”.

Take B22: the binding result is “binds”.

In the case of B23, the binding result is on record as “binds”.

B24: the binding result was “binds”.

As for B25, the binding result was “binds”.

Regarding B26, the binding result is “binds”.

For the molecule B27, the binding result is “binds”.

In the case of B28, the binding result is “binds”.

As to B29, the binding result is recorded as “binds”.

Another data set has as its target T1, rec-cMet (Recombinant Human HGF …). The data set can be described thus: SPR; rec-cMet 60 nM. The settings on record: tags: C-terminal HIEGRMD linker, human IgG Fc (100-330), 6xHis; R&D Systems; chain copies: 2 (inferred, Fc chimera). As for the experimental part:
as §1
The binding ability of each of the RNA aptamers to the rec-cMet was examined in the same manner as in Example 5, except that the fluorinated RNA aptamers were used. The concentration of the rec-cMet was set to 60 nmol/L. With the time point at which the introduction of the rec-cMet to the chip was started being 0 seconds, introduction of a buffer was started 60 seconds later. As a comparative example, the same negative control as in Example 6 was used.
Take B30: the binding result was “binds”.

Regarding B31, the binding result was “binds”.

On to B32, for which the binding result is “binds”.
